Data reported in patent publication US20170267986A1, “GENERATION OF MANNOSE-6-PHOSPHATE CONTAINING RECOMBINANT ALPHA-N-ACETYL GLUCOSAMINIDASE” (SHIRE HUMAN GENETIC THERAPIES, INC., priority 2014, published 2017).

B1: Soluble human N-acetylglucosamine-1-phosphotransferase (sGNPT), HPC4 tagged (protein)
chain: DEDQVDPRLIDGKWSRDQYHVLFDSYRDNIAGKSFQNRLCLPMPIDVVYTWVNGTDLELLKELQQVREQMEEEQKAMREILGKNTTEPTKKSEKQLECLLTHCIKVPMLVLDPALPANITLKDLPSLYPSFHSASDIFNVAKPKNPSTNVSVVVFDSTKDVEDAHSGLLKGNSRQTVWRGYLTTDKEVPGLVLMQDLAFLSGFPPTFKETNQLKTKLPENLSSKVKLLQLYSEASVALLKLNNPKDFQELNKQTKKNMTIDGKELTISPAYLLWDLSAISQSKQDEDISASRFEDNEELRYSLRSIERHAPWVRNIFIVTNGQIPSWLNLDNPRVTIVTHQDVFRNLSHLPTFSSPAIESHIHRIEGLSQKFIYLNDDVMFGKDVWPDDFYSHSKGQKVYLTWPVPNCAEGCPGSWIKDGYCDKACNNSACDWDGGDCSGNSGGSRYIAGGGGTGSIGVGQPWQFGGGINSVSYCNQGCANSWLADKFCDQACNVLSCGFDAGDCGQDHFHELYKVILLPNQTHYIIPKGECLPYFSFAEVAKRGVEGAYSDNPIIRHASIANKWKTIHLIMHSGMNATTIHFNLTFQNTNDEEFKMQITVEVDTREGPKLNSTAQKGYENLVSPITLLPEAEILFEDIPKEKRFPKFKRHDVNSTRRAQEEVKIPLVNISLLPKDAQLSLNTLDLQLEHGDITLKGYNLSKSALLRSFLMNSQHAKIKNQAIITDETNDSLVAPQEKQVHKSILPNSLGVSERLQRLTFPAVSVKVNGHDQGQNPPLDLETTARFRVETHTQKTIGGNVTKEKPPSLIVPLESQMTKEKKITGKEKENSRMEENAENHIGVTEVLLGRKLQHYTDSYLGFLPWEKKKYFQDLLDEEESLKTQLAYFTDSKNRARYKRDTFADSLRYVNKILNSKFGFTSRKVPAHMPHMIDRIVMQELQDMFPEEFDKTSFHKVRHSEDMQFAFSYFYYLMSAVQPLNISQVFDEVDTDQSGVLSDREIRTLATRIHELPLSLQDLTGLEHMLINCSKMLPADITQLNNIPPTQESYYDPNLPPVTKSLVTNCKPVTDKIHKAYKDKNKYRFEIMGEEEIAFKMIRTNVSHVVGQLDDIRKNPRKFVCLNDNIDHNHKDAQTVKAVLRDFYESMFPIPSQFELPREYRNRFLHMHELQEWRAYRDKL
B2: rhNaglu: recombinant human alpha-N-acetyl-glucosaminidase purified from human fibrosarcoma HT1080 cells engineered to over-express it (protein)
chain: DEAREAAAVRALVARLLGPGPAADFSVSVERALAAKPGLDTYSLGGGGAARVRVRGSTGVAAAAGLHRYLRDFCGCHVAWSGSQLRLPRPLPAVPGELTEATPNRYRYYQNVCTQSYSFVWWDWARWEREIDWMALNGINLALAWSGQEAIWQRVYLALGLTQAEINEFFTGPAFLAWGRMGNLHTWDGPLPPSWHIKQLYLQHRVLDQMRSFGMTPVLPAFAGHVPEAVTRVFPQVNVTKMGSWGHFNCSYSCSFLLAPEDPIFPIIGSLFLRELIKEFGTDHIYGADTFNEMQPPSSEPSYLAAATTAVYEAMTAVDTEAVWLLQGWLFQHQPQFWGPAQIRAVLGAVPRGRLLVLDLFAESQPVYTRTASFQGQPFIWCMLHNFGGNHGLFGALEAVNGGPEAARLFPNSTMVGTGMAPEGISQNEVVYSLMAELGWRKDPVPDLAAWVTSFAARRYGVSHPDAGAAWRLLLRSVYNCSGEACRGHNRSPLVRRPSLQMNTSIWYNRSDVFEAWRLLLTSAPSLATSPAFRYDLLDLTRQAVQELVSLYYEEARSAYLSKELASLLRAGGVLAYELLPALDEVLASDSRFLLGSWLEQARAAAVSEAEADFYEQNSRYQLTLWGPEGNILDYANKQLAGLVANYYTPRWRLFLEALVDSVAQGIPFQQHQFDKNVFQLEQAFVLSKQRYPSQPRGDTVDLAKKIFLKYYPRWVAGSW

Tests used:
[1] = target: T1, Naglu-Kif, a high-mannose-containing recombinant human Naglu (before sGNPT modification)
T1 chain: B2 chain

[2] = target: T2, Recombinant human Naglu (rhNaglu)
T2 chain: B2 chain

CI-M6PR = target: T3, CI-M6PR (Homo sapiens, UniProt P11717); experiment: Plate based sCI-M6PR binding assay (ELISA); conditions: treated with sGNPT under the same conditions as Naglu-Kif
T3 construct: the secreted sCI-M6PR was purified from the tissue culture medium; made in house
Method: (1) Generation of sCI-M6PR (soluble CI-M6PR)—Full length M6PR was expressed in genetically modified tissue culture cells, and the secreted sCI-M6PR was purified from the tissue culture medium using an aminophenyl-M6P conjugated resin (Beljaars et al., 1999). N-terminal sequencing and LC/MS/MS analysis of the obtained protein confirmed the amino acid sequence of the sCI-M6PR, and MALDI analysis confirmed that its molecular mass was 279,492 Da.
100 μl of sCI-M6PR(2.5 μg/ml) in DPBS were coated on MaxiSorp® Nunc-Immuno flat-bottom 96-well plates (Thermo Fisher Scientific, Inc., Sunnyvale, Calif.). After incubation for 1 hour at 37° C., the plates was washed with ELISA wash buffer (0.1% Tween-20 in DPBS). sCI-M6PR coated wells were blocked with 300 μl ELISA blocking buffer (DPBS, 2% BSA, 0.05% Tween 20) at 37° C. for 1 hour. Appropriate dilutions of sGNPT-modified Naglu-Kif (and rhNaglu as control) were made in blocking buffer and added to the wells. After 1 hour incubation at 37° C., the plates were washed with ELISA wash buffer, and 100 μl of HRP-conjugated rabbit anti-Naglu polyclonal antibody #2957 diluted in blocking buffer were added. After 1 hour incubation at 37° C., the plates was washed again with ELISA wash buffer. The ELISA was developed using TMB peroxidase substrate solution (KPL, Inc., Gaithersburg, Mass.) by following the manufacturer's protocol.
sGNPT transfers the phospho-GlcNAc group from UDP-GlcNAc to mannose sugar, and the resulting mannose-6-phosphate-GlcNAc is called the Capped-M6P. During the normal intracellular glycosylation process, the decapping enzyme (N-acetylglucosamine 1-phosphodiester α-N-acetyglucosaminidase) removes the GlcNAc from the Capped-M6P, to generate M6P. But without decapping, the Capped-M6P can also bind to CI-M6PR. Capped-M6P binds to domain 5 of CI-M6PR rather than to domain 3 or 9, as M6P does (Bohnsack et al. 2009). The amount of Capped-M6P on Naglu-Kif can be indirectly evaluated using a CI-M6PR plate binding assay. In this binding assay the affinity with which Naglu-Kif bound to CI-M6PR increased in proportion to the amount of sGNPT used (35 μg, 70 μg and 140 (corresponding to about 4.2 μM) (green, red and empty circle in FIG. 8, respectively)) to modify Naglu-Kif and thus the extent of Capped-M6P found on Naglu-Kif (FIG. 8). […] These binding reactions were repeated in two different buffer systems, i.e., in a sodium acetate buffer (40 mM NaAc pH 6.5, 10 mM MnCl2, 10 mM MgCl2) and in a Tris buffer (50 mM Tris pH 7.4, 10 mM MnCl2, 10 mM MgCl2), which gave similar results. Contrary to Naglu-Kif, rhNaglu was not phosphorylated by sGNPT under the same conditions due to the lack of high-mannose glycans.

rhNaglu = target: T4, rhNaglu (Homo sapiens, UniProt P54802); experiment: Naglu substrate analysis: hydrolysis of UDP-sugars by rhNaglu, PAD-HPLC; assay type: biochemical; conditions: 0.8 mM UDP-GlcNAc, 37° C., 1 hour
T4 construct: The N-terminal 23 amino acids are cleaved as the precursor protein enters the endoplasmic reticulum, resulting in a mature form; made in house; host or cells: human fibrosarcoma HT1080 cell clone over-expressing rhNaglu
T4 sequence (P54802 24-743): B2 chain
Method: Recombinant human Naglu was co-incubated with uridine diphosphate N-acetylglucosamine (UDP-GlcNAc) or uridine diphosphate N-acetyl galactosamine (UDP-GalNAc). UDP-GlcNAc, GlcNAc (N-acetylglucosamine) and UDP-GalNAc were detected using PAD-HPLC (Pulsed Amperometric Detection-High Pressure Liquid Chromatography) that was modified after Chavaroche et al. 2011.
Recombinant human Naglu was dialyzed into Tris buffer (40 mM Tris pH 7.15, 100 mM NaCl, 4 mM MgCl2, and 4 mM MnCl2) and concentrated with VivaSpin® sample concentrators having a 30 kDa cut-off (Viva Products, Inc., Littleton, Mass.). […]
Samples were then subjected to centrifugation at 10,000 rpm, and the resulting supernatants were loaded on PA10 columns and detected by PAD-HPLC (Pulsed Amperometric Detection-High Pressure Liquid Chromatography) (Dionex ICS-3000 Ion Chromatography System (Thermo Fisher Scientific, Inc., Sunnyvale, Calif.)). […] The peak areas for the eluted UDP-GlcNAc were measured, and the reductions of the area under the curve (AUC) in response to increased concentrations of rhNaglu were determined (FIG. 1A). A new peak at 10.7 minutes was detected on the chromatograms of samples treated with concentrations of rhNaglu of 23.4 μg/ml and above. […] The peak areas for the eluted GlcNAc were measured, and the increases of the AUC in response to increased concentrations of rhNaglu were determined (FIG. 1B). […]

Row | Molecule | pmol M6P/pmol Naglu Kif (M6P monosaccharide quantitation by PAD-HPLC after in vitro phosphorylation; +70 ug GNPT, 50 mM Tris pH 7.4, 10 mM MnCl2, 10 mM MgCl2) (pmol M6P/pmol Naglu Kif) [1] | pmol M6P/pmol Naglu Kif (M6P monosaccharide quantitation by PAD-HPLC after in vitro phosphorylation; +70 ug GNPT, 50 mM sodium acetate pH 6.5, 20 mM MnCl2) (pmol M6P/pmol Naglu Kif) [1] | pmol M6P/pmol Naglu Kif (M6P monosaccharide quantitation by PAD-HPLC after in vitro phosphorylation; +140 ug GNPT, 50 mM sodium acetate pH 6.5, 20 mM MnCl2) (pmol M6P/pmol Naglu Kif) [1] | in vitro phosphorylation by sGNPT [2] | binding to CI-M6PR (CI-M6PR) | minimum rhNaglu concentration required for detection of hydrolysis of UDP-GlcNAc (rhNaglu) [µg/mL]
1 | B1 | 1.45 | 0.12 | 0.64 | rhNaglu was not phosphorylated by sGNPT under the same conditions due to the lack of high-mannose glycans | – | –
2 | B2 | – | – | – | – | did not bind | 23.4
